# Experiments:
# [1] = biological target: thrombin from human plasma (Homo sapiens, UniProt P00734); experiment: Km-based fluorogenic assay for inhibition of thrombin (Example 7); type: biochemical; design: from tissue; host or cells: human plasma; conditions: FIG. 9, ambient temperature, pH 7.2
# Method: Thrombin from human plasma was obtained from Enzyme System Products, Dublin, Calif., in glycerol:water 1:1, 11.4 mg/ml, 3800 U/mg, MW 36,700, and stored undiluted at -20° C. It was freshly diluted the day of use.
# To dilute for the assay, 0.67 μl (25 Units) of thrombin was pipetted into 5 ml of 0.1 mg/ml BSA (from Pierce, Catalog No. 23209, BSA fraction V, a 2 mg/ml stock in saline with sodium azide), in cold PBS (GIBCO, Catalog No. 14190-136, without calcium chloride and magnesium chloride, pH 7.2) and briefly vortexed, yielding a stock of 5 mU thrombin/μl.
# The substrate was N-tBOC-β-Benzyl-Asp-Pro-Arg-7-Amido4-Methylcoumarin HCl and was obtained from Sigma, Catalog No. B4028, Lot 122H0070, F.W. 770.3. Five mg was dissolved in […] DMSO for a 4 mM stock. The stock was stored in 200 μl aliquots at -20° C. in the dark.
# An alternative substrate was N-tBOC-Val-Pro-Arg-7-Amido4-Methylcoumarin HCl and was obtained from Sigma, Catalog No. B-9385, Lot 53H0805, F.W. of free base 627.7. Five mg was dissolved in 1.863 ml DMSO for a 4 mM stock. The stock was stored in 200 μl aliquots at -20° C. in the dark.
# The fluorescent standard was 7-Amido4-Methylcoumarin and was obtained from Aldrich, Catalog No. 25,737-0, MW 175.19. […]
# Initial readings were taken to ensure exclusion of rogue wells with abnormally high backgrounds (λ excitation at 360 nm, bandwidth […], λ emission, 460 nm, bandwidth 40 nm). Then, 25 μl of a 10×stock of the putative inhibitor were added per well, mixed for 5 seconds and read kinetically for 10 minutes at ambient temperature to assess background interference and/or any increase in hydrolysis of substrate due to inhibitor.
# The thrombin assay was then initiated by adding 25 μl of thrombin/well with a multichannel pipettor and mixed for 5 seconds. The appearence of the fluorescent product (free 7-amido-4-methylcoumarin released from the peptide by thrombin) was followed simultaneously in 48 wells (one reading per minute for 30 minutes, λ excitation at 360 nm, bandwidth 40 nm, λ emission, 460 nm, bandwidth 40 nm). […]
# thrombin = experiment: Sandwich ELISA for thrombin binding of conjugated proteins (anti-thrombin detection)
# Method: (§1) The plates were incubated at room temperature for 30 minutes and washed as above.
# as §1
# Next, 100 μl/well of ABC-HRP (Vector, catalog no. PK4000) was added, each component diluted 1:500 in PBS, pH 7.4, with 0.1% TWEEN 20 and incubated 30 minutes at room temperature prior to use.
# [2] = biological target: rabbit serum albumin (RSA) (Oryctolagus cuniculus, UniProt P49065); experiment: Mass spectrometric analysis of conjugation to RSA (HPLC/ESIMS, MALDI-TOFMS); type: binding; conditions: LC/MS; 15 μM RSA, 200 μM argatroban-C6 NHS ester, 1 hour (Example 8)
# Method: All samples were analyzed using a high performance liquid chromatograph (HPLC) coupled in-line to an electrospray ionization (ESI) mass spectrometer (MS) which is termed HPLC/ESIMS. Some samples were also analyzed using a matrix-assisted laser desorption ionization (MALDI) time-of-flight (TOF) mass spectrometer which is termed (MALDI-TOFMS).
# Samples for HPLC/ESIMS were either prepared as duplicate reaction samples or were part of the same reaction samples which were used in the ELISA assays described below. These samples were injected directly only the HPLC/ESIMS without any manipulation other than dilution with water, where the PBS, DMSO, and unreacted derivative molecules are separated from the protein-argatroban derivative molecule conjugate. Samples for MALDI-MS were first HPLC-purified and mixed 1:1 directly on the stainless steel analysis plate with a matrix of 10 mg/ml sinnapinic acid in 50% acetonitrile/50% water. The mixture was then dried with a gentle flow of air to allow for crystallization and inserted into the instrument for laser ionization.
# The HPLC is a Hewlett Packard 1090 Series II liquid chromatogram with a diode array detector. The column used for separation is a Brownlee aquapore OD-300 reversed phase C18 column, 1 mm×10 cm, 300 Å pore size, 7 μm particle diameter. The mass spectrometer to which the HPLC is connected using fused Silica capillary tubing is a Sciex API-300 triple quadrupole mass spectrometer with an ionspray source to allow for atmospheric pressure ionization of a liquid flowing continuously into the instrument. The MALDI-TOFMS is a Perceptive Biosystems Voyager Elite DE instrument run in the linear mode.
# The conjugate was prepared according to the following protocol. […] Sham samples consist of the RSA incubated for the same length of time at RT in 2% DMSO in PBS. Each of the samples was then concentrated to a final volume of 1.5 mL using Amicon Centricon 30 filtration/concentration devices. The concentrated samples were then desalted on Pierce's 5 ML Kwiksep excellulose plastic desalting columns. The excluded volumes containing RSA or argatroban-C6-RSA were then subjected to BCA microprotein estimation and lyophilization. In addition, these samples were analyzed by LC/MS, sandwich ELISA assays (described above) to measure thrombin binding and immunoblotting.
# rabbit serum albumin (RSA), sequence (P49065 25-608): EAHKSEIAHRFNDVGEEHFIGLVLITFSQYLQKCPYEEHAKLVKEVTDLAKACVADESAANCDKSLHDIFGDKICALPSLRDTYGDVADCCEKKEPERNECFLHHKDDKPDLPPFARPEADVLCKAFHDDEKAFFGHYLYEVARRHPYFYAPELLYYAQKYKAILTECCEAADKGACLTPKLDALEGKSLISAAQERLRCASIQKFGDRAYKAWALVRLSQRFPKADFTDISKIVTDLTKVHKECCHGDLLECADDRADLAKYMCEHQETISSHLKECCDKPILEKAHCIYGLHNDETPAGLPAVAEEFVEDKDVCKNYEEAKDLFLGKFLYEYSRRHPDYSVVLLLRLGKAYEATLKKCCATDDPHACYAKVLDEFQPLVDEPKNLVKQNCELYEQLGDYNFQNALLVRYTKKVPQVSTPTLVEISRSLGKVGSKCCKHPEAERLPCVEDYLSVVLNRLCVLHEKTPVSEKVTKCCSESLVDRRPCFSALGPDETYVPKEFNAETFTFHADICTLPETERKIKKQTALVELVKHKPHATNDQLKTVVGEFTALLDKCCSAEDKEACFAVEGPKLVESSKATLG
substance,measurement,setting,value
RSA-argatroban-C6 conjugate: rabbit serum albumin covalently bound by argatroban-C6 NHS ester molecules,IC50 (estimated),[1],~25 nM
same,absolute ELISA signal,thrombin; RSA conjugate versus HSA conjugate,the absolute signal is lower than that obtained with HSA
same,concentration at which a significant signal above background was detected,"thrombin; RSA conjugate, FIG. 3",approximately 30 ng/ml
same,average of tethered argatroban molecules conjugated to each RSA molecule,[2],10 tethered argatroban molecules

# — US6087375A, “Methods of treating or preventing thromboses” (priority 1999, dated 2000)
